Measured values published in patent US20240025997A1 (NGM BIOPHARMACEUTICALS, published 2024).

Key:
Human ILT4-Fc = Human ILT4-Fc (human, UniProt Q8N423 22-460); assay: SPR (Biacore) competition: blocking of human ILT4-Fc binding to HLA-A, 25 C
Description: (§1) In addition to the reporter cell system, the inhibitory activity of anti-ILT2/ILT4 antibodies towards the interaction between ILT2 and MHC I molecules, and the interaction between ILT4 and MHC I molecules was evaluated using the Biacore system. Human ILT2-Fc and ILT4-Fc were used as target receptors and their interaction with an exemplary MHC-I molecule (HLA-A) was assayed in the presence or absence of an exemplary anti-ILT2/ILT4 antibody Hz73D1.v1 at 25° C. Anti-human ILT2 (clone 27F9) or ILT4 (clone 48A5) antibodies were used as tool reagents to dissect ILT2- and ILT4-specific blocking activities. Anti-IL2/ILT4 antibodies produced a dose-dependent reduction in the interaction between ILT2 and HLA-A, as well as between ILT4 and HLA-A. IC50s of the antibodies tested are shown in Table 16.

[1] = biological target: T1, human ILT2 chimeric reporter receptor (ILT2 extracellular domain fused to PILRbeta … (human, UniProt Q8NHL6 24-461)); assay: reporter cell assay (not a direct binding assay): human ILT2 reporter cells co-cultured with Raji cells, %GFP+ by FACS
T1 construct: On the surface of NFAT-GFP reporter cells; associates with DAP12; also called ILT2 reporter cells; Human ILT2 reporter construct; not shown: The PILRbeta transmembrane/intracellular domain
Description: The ability of anti-ILT2/ILT4 antibodies to inhibit the interaction between ILT2 and/or ILT4 and MHC I molecules was evaluated using a reporter cell system. […] In this chimeric receptor system, the extracellular domain of the receptor of interest (e.g., ILT2 or ILT4) is fused with the transmembrane/intracellular domain of PILRβ that associates with the adaptor protein DAP12. When the chimeric receptor (e.g., ILT2 or ILT-4) is activated by binding to a ligand (e.g., MHC I molecule), DAP12 becomes phosphorylated and activates an NFAT-responsive promoter which drives GFP expression (see, e.g., Deng et al., 2014, Blood, 124:924-935).
Reporter cells were washed after staining and resuspended at 1×10⁶ cells/ml in X-VIVO™ 15 media (Lonza). […] For assays with Raji cells: anti-ILT2 antibody 27F9, anti-ILT4 antibody 48A5, anti-ILT2/ILT4 antibody 73D1 and Hz73D1.v1, and a control antibody were serially diluted and 50 μl was added to each well of a 96-well flat-bottom cell culture plate. […] The plates were incubated overnight at 37° C. The next day, reporter cells were assayed for GFP expression by FACS.

soluble human ILT4-ECD [2] = biological target: T2, soluble human ILT4-ECD (human, UniProt Q8N423 22-460); assay: Biacore competition: antibody titrated against 20 nM ILT4-ECD, mixture injected over biotinylated HLA-A*1101 on a NeutrAvidin chip; blocked ligand HLA-A*1101
T2 construct: also called LILRB2 extracellular domain
Description: (§2) As part of the characterization process, the ability of exemplary antibodies to inhibit or block the interaction of ILT2 or ILT4 with their natural ligands was evaluated in competition experiments using a Biacore system. As described herein, the natural ligands of ILT2 and ILT4 include, but are not limited to, HLA class I molecules, including HLA-A, HLA-B, HLA-C, HLA-E, and HLA-G. Biotinylated HLA-A*1101 was captured in high amounts on a NeutrAvidin chip surface. Antigen-antibody complexes were prepared with (i) ILT2-ECD and anti-ILT2 antibody 27F9, anti-ILT4 antibody 48A5, or anti-ILT2/ILT4 antibody Hz73D1.v1 and (ii) ILT4-ECD and anti-ILT2 antibody 27F9, anti-ILT4 antibody 48A5, or anti-ILT2/ILT4 antibody Hz73D1.v1. The antibody concentration of each antibody was titrated from 0.09-100 nM and the concentration of human ILT2-ECD or ILT4-ECD was kept constant at 20 nM. The complexes were mixed in a 96-well microplate and each was injected onto the HLA-A-coated chip surface. The measured signal (response unit, RU) was plotted against the antibody concentration.

soluble human ILT2-ECD [3] = biological target: T3, soluble human ILT2-ECD (human, UniProt Q8NHL6 24-461); assay: Biacore competition: antibody titrated against 20 nM ILT2-ECD, mixture injected over biotinylated HLA-A*1101 on a NeutrAvidin chip
T3 construct: also called LILRB1 extracellular domain
Description: as §2

soluble human ILT4-ECD [4] = biological target: T2, soluble human ILT4-ECD; assay: SPR (Biacore), antibody captured on Protein A chip, soluble ILT-ECD injected (1.6-200 nM), 25 C
Description: (§3) The binding affinities of anti-ILT2 and anti-ILT4 antibodies were measured using a Biacore system (GE Healthcare LifeSciences). Equilibrium dissociation constant (KD) measurements were carried out with purified antibodies to evaluate their binding to human ILT2, human ILT4, and rhesus ILT2. Briefly, purified anti-ILT2 antibody 27F9, anti-ILT4 antibodies 47C8 and 48A5, and anti-ILT2/ILT4 antibodies 47H6, 51A1, 64A12, 73C4, and 73D1 were captured on a Sensor Chip Protein A (GE HealthCare). The surface of the Biacore Sensor Chip Protein A consists of a carboxymethylated dextran matrix with a recombinant Protein A variant covalently attached. Soluble human ILT2-ECD, human ILT4-ECD, or rhesus ILT2-ECD were injected at a flow rate of 30 μL/min at 25° C. The ILT2 or ILT4 proteins were used at concentrations ranging from 1.6-200 nM in PBS-P buffer with 2 fold dilutions. Kinetic data were collected over time and fit using the simultaneous global fit equation to yield affinity constants (KD values) for each antibody.

human ILT2 on cells [5] = biological target: T4, human ILT2 on cells (human, UniProt Q8NHL6 24-650); assay: flow cytometry, fluorescently labelled antibody on immune cell subsets of PBMC / red-cell-depleted whole blood
T4 construct: also called LILRB1; human ILT2 expressed on 293T cells
Description: (§4) Flow cytometry analysis of blood immune cells was performed on human and cyno PBMC and whole blood. PBMC were prepared from a leukopak (Allcells Inc.) by centrifugation through ficoll, washing with PBS and freezing in cryopreservation buffer in liquid nitrogen until use. Whole blood (Allcells Inc.) was obtained fresh and red blood cells (RBC) depleted using ammonium chloride RBC lysing solution (Biolegend). PBMC or whole blood samples were stained with a fluorescently labeled antibody panel to distinguish various immune subsets (monocytes, B cells, NK cells, CD4+ and CD8+ T cells, neutrophils and eosinophils). Samples were further stained with fluorescently labeled isotype, 27F9 (ILT2 specific), 48A5 (ILT4 specific), 73D1, and Hz73D1.v1. The number of ILT2 and ILT4 molecules per cell of each immune subset was estimated by incubation with Quantum Simply Cellular microspheres followed by flow cytometry analysis.

human ILT4 on cells [6] = biological target: T5, human ILT4 on cells (human, UniProt Q8N423 22-597); assay: as above
T5 construct: also called LILRB2; human ILT4 expressed on 293T cells
Description: as §4

[7] = biological target: T6, cynomolgus monkey ILT2 on cells (cynomolgus monkey); assay: flow cytometry, fluorescently labelled antibody on CD14+ monocytes of cyno PBMC (2 donors), geometric MFI
T6 construct: also called cyno ILT2; ILT2 on cyno CD14+ monocytes
Description: The binding of anti-ILT2/ILT4 antibodies to monocytes was evaluated. The binding of exemplary anti-ILT2/ILT4 antibody 73D1 and the humanized version Hz73D1.v1 to the CD14+ monocyte population of human and cyno PBMC were determined by flow cytometry analysis. Briefly, human or cyno PBMCs (from 2 donors each) were thawed, washed in media (RPMI, 10% FBS, L-glutamine, pen/strep), and resuspended in fresh media. PBMCs were stained with a cocktail of labeled antibodies to differentiate between the different cell types. 1×10⁶ cells/well were stained with fluorescently-labelled 73D1 or Hz73D1.v1 antibody and incubated on ice. The cells were washed with ice-cold reagents and immediately analyzed by flow cytometry. The geometric mean fluorescence intensity for CD14+ monocytes was calculated for each sample. […] For example, the 50% effective concentration (EC₅₀) of Hz73D1.v1 was 8.8 nM with human monocytes and 1.8 nM with cyno monocytes.

human ILT4 on cells [8] = biological target: T5, human ILT4 on cells; assay: cell-based or functional assay
soluble human ILT2-ECD [9] = biological target: T3, soluble human ILT2-ECD; assay: Biacore competition: antibody titrated against 20 nM ILT2-ECD, mixture injected over biotinylated HLA-A*1101 on a NeutrAvidin chip; blocked ligand HLA-A*1101
Description: as §2

human ILT2 on cells [10] = biological target: T4, human ILT2 on cells; assay: cell-based or functional assay
human ILT4 on cells [11] = biological target: T5, human ILT4 on cells; assay: cell-based or functional assay; remark: listed apart in the source
soluble human ILT4-ECD [12] = biological target: T2, soluble human ILT4-ECD; assay: SPR (Biacore) as described in Example 3
Description: as §3
(§5) The binding affinities of the humanized antibodies to human ILT2 and human ILT4 were measured using a Biacore system as described herein. The binding affinities of antibodies Hz47H6.v2, Hz64A12, and Hz73D1.v1 are shown in Table 11 as compared with the parental antibodies.

soluble human ILT2-ECD [13] = biological target: T3, soluble human ILT2-ECD; assay: SPR (Biacore) as described in Example 3
Description: as §3, §5

soluble human ILT4-ECD [14] = biological target: T2, soluble human ILT4-ECD; assay: SPR (Biacore), antibody captured on Protein A chip, ILT protein injected, 25 C
soluble human ILT2-ECD [15] = biological target: T3, soluble human ILT2-ECD; assay: as above
Human ILT2-Fc = Human ILT2-Fc (human, UniProt Q8NHL6 24-461, limits assumed); assay: SPR (Biacore) competition: blocking of human ILT2-Fc binding to HLA-A, 25 C
Description: as §1

T4 sequence (Q8NHL6 24-650): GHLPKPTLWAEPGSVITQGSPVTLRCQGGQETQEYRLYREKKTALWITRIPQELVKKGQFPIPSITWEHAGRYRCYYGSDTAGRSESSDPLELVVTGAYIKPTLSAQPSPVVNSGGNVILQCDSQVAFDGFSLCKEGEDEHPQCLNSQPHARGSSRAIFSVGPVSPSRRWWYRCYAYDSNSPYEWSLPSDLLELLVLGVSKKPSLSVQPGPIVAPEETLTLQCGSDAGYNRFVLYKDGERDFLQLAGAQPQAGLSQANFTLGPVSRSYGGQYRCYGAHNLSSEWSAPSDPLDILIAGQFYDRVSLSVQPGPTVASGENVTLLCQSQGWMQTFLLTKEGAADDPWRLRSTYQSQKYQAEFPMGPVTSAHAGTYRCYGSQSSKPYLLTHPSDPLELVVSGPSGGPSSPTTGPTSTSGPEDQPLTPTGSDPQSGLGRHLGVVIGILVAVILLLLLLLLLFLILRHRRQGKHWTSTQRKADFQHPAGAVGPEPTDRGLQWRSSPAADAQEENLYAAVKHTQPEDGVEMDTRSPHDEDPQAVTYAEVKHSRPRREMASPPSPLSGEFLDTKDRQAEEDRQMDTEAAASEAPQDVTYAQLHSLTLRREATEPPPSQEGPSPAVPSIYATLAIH
T2 sequence (Q8N423 other isoform, or with tags, fused parts or gaps): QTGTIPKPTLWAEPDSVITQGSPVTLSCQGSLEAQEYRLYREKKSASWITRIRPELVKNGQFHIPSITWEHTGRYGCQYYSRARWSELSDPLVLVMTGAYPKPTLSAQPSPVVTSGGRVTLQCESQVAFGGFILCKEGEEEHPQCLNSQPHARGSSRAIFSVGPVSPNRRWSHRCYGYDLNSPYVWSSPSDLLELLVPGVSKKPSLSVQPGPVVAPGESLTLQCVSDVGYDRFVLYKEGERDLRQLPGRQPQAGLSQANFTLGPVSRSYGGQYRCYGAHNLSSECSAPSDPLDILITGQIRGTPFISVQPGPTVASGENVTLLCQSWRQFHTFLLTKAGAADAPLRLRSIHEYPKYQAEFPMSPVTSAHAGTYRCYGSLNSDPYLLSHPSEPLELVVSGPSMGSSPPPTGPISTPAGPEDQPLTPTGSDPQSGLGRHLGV
T5 sequence (Q8N423 other isoform, or with tags, fused parts or gaps): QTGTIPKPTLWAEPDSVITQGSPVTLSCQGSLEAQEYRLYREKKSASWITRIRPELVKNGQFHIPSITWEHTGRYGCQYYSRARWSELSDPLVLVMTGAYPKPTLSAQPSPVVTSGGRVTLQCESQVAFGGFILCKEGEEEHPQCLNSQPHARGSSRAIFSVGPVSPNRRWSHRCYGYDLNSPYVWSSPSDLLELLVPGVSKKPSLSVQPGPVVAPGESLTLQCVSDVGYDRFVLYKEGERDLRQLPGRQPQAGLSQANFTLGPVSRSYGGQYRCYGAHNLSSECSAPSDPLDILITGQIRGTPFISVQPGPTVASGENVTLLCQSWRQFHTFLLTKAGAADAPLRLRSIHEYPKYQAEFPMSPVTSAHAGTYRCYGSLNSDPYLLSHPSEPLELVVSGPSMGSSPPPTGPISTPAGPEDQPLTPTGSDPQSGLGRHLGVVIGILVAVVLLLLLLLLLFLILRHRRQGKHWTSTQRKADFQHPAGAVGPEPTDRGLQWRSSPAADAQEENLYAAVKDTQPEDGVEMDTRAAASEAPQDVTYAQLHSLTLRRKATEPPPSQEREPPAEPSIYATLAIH
T3 sequence (Q8NHL6 24-461): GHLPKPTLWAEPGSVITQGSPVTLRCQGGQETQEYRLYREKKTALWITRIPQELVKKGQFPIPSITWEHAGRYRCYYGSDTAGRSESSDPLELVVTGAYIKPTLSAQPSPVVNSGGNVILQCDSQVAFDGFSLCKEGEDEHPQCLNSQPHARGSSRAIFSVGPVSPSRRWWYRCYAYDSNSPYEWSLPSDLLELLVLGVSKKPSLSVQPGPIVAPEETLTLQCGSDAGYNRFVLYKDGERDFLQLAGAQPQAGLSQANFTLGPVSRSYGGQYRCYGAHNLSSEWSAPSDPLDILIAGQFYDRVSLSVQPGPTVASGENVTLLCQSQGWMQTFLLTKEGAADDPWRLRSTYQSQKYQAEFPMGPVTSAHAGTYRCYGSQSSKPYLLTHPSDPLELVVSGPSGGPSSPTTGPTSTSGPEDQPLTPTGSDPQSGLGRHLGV
T1 sequence (Q8NHL6 24-461 limits assumed, change not shown): as the sequence (Q8NHL6 24-461) above
Sequence of Human ILT2-Fc (Q8NHL6 24-461 limits assumed): as the sequence (Q8NHL6 24-461) above
T6 sequence (chain, as listed by the source): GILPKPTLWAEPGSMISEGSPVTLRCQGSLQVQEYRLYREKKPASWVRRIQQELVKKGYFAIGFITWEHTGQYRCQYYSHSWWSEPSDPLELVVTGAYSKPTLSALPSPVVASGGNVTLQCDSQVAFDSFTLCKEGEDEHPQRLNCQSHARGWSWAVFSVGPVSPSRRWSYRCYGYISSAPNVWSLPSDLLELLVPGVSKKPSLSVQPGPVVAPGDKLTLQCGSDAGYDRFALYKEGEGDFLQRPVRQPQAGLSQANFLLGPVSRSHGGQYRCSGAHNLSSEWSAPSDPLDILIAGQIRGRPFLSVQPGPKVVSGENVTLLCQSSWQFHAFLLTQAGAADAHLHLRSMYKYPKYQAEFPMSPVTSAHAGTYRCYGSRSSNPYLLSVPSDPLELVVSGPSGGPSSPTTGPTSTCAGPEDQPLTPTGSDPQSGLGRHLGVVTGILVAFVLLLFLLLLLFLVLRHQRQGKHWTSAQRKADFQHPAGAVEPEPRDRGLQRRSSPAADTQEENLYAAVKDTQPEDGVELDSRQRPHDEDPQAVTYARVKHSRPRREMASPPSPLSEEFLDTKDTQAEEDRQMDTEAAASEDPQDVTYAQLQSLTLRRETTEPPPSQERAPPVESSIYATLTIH

B1: anti-ILT4 antibody 48A5 (antibody, V domains shown)
VH: QIQLVQSGPELKKPGETVKISCKASGYTFTNYGMNWVKQAPGKGLKWMGWINTYIGEPIYADDFKGRFAFSLETSASTAYLQINNLKNEDMATYFCARRSDYDGYAMDYWGQGTSVTVSS
VL: DIVMSQSPSSLAVSVGERVTMSCKSSQSLLYSGNQKNYLAWYQQKPGQSPKLLIYWASTRESGVPDRFTGSGSGTDFTLTISSVKAEDLAVYYCQQHDSYPTFGGGSRLEIK
notes: Mouse hybridoma antibody; also called clone 48A5; anti-ILT4 (48A5)
IC50 (Human ILT4-Fc): 8.4 nM | binding result [1]: no binding (tested: Log nM about 1.5 (about 30 nM)) | IC50 (read off the curve) (soluble human ILT4-ECD [2]): ~20 nM | binding result (soluble human ILT2-ECD [3]): no binding (tested: about 200 nM) | Kd (soluble human ILT4-ECD [4]): 0.026 nM | koff (soluble human ILT4-ECD [4]): 2.1e-05 s⁻¹ | kon (soluble human ILT4-ECD [4]): 810000 M⁻¹ s⁻¹ | binding result (human ILT2 on cells [5]): no binding (tested: not given) | binding result (human ILT4 on cells [6]): binds

B2: humanized anti-ILT2/ILT4 antibody Hz73D1.v1 (antibody, human IgG1, kappa, N297G, V domains shown)
VH: QVQLVQSGAEVKKPGASVKVSCKASGYTFTDYYINWVRQAPGQGLEWMGNVNPNDGGTTYNQKFKGRVTMTTDTSTSTAYMELRSLRSDDTAVYYCARREIYFYGTIYYYAMDYWGQGTLVTVSS
VL: DIQLTQSPSFLSASVGDRVTITCRASESVDYYGNSFMYWYQQKPGKAPKLLIYFASNLESGVPSRFSGSGSGTEFTLTISSLQPEDFATYYCQQNNEDPWTFGGGTKVEIKR
notes: Human IgG1 constant region with G at position 297, human kappa; also called Hz73D1.vi
binding result [7]: binds | IC50 (Human ILT4-Fc): 9.4 nM | IC50 (read off the curve) (soluble human ILT4-ECD [2]): ~9 nM | EC50 (nM), TNFalpha secretion of tolerized dendritic cells, LPS + Cyclosporine (human ILT4 on cells [8]): 0.2 nM | EC50 (nM), TNFalpha secretion of tolerized dendritic cells, LPS + IL-6 (human ILT4 on cells [8]): 0.14 nM | EC50 (nM), TNFalpha secretion of tolerized dendritic cells, LPS + IL-10 (human ILT4 on cells [8]): 1.2 nM | EC50 (nM), TNFalpha secretion of tolerized dendritic cells, LPS + PGE2 (human ILT4 on cells [8]): 0.44 nM | EC50 (nM), TNFalpha secretion of tolerized dendritic cells, LPS + Rapamycin (human ILT4 on cells [8]): 0.15 nM | EC50 (nM), TNFalpha secretion of tolerized dendritic cells, LPS + TGFβ (human ILT4 on cells [8]): 0.1 nM | EC50 (nM), TNFalpha secretion of tolerized dendritic cells, LPS + VitD3/Dex (human ILT4 on cells [8]): 0.4 nM | IC50 (read off the curve) (soluble human ILT2-ECD [9]): ~9 nM | EC50, NKL cytolytic activity against 721.221-HLA-A*0201 target cells (human ILT2 on cells [10]): 0.13 nM | EC50, NKL cytolytic activity against 721.221-HLA-G target cells (human ILT2 on cells [10]): 2.4 nM | percent CD137+ NK cells, ADCC assay with CAL-27 cells and anti-EGFR antibody (human ILT2 on cells [10]): 1.8 fold | EC50, GM-CSF secretion of LPS-stimulated human PBMC (human ILT4 on cells [11]): 1.5 nM | EC50, TNFalpha secretion of LPS-stimulated human PBMC (human ILT4 on cells [11]): 0.76 nM | Kd (soluble human ILT4-ECD [12]): 0.75 nM | koff (soluble human ILT4-ECD [12]): 0.00027 s⁻¹ | kon (soluble human ILT4-ECD [12]): 360000 M⁻¹ s⁻¹ | Kd (soluble human ILT2-ECD [13]): 3 nM | koff (soluble human ILT2-ECD [13]): 0.00025 s⁻¹ | kon (soluble human ILT2-ECD [13]): 85000 M⁻¹ s⁻¹ | Kd (soluble human ILT4-ECD [14]): 0.205 nM | koff (soluble human ILT4-ECD [14]): 4.6e-05 s⁻¹ | kon (soluble human ILT4-ECD [14]): 220000 M⁻¹ s⁻¹ | Kd (soluble human ILT2-ECD [15]): 1.03 nM | koff (soluble human ILT2-ECD [15]): 4.85e-05 s⁻¹ | kon (soluble human ILT2-ECD [15]): 47200 M⁻¹ s⁻¹ | IC50 (Human ILT2-Fc): 10 nM
